The RNAGym collection of RNA variant scans (doi:10.1073/pnas.2313332121)

B1: TPR t1 (parent)
chain: GACCAAUCUGCCCUCAGAGCUCGAGAACAUCUUCGGAUGCAGAGGAGGCAGGCUUCGGUGGCGCGAUAGCGCCAACGUCCUCAACCUCCAAUGCAUCCCACCACAUGAUGAUGCCUGAAGAGCCUUGGUUUUUUG

Variants of: B1
Experiment: polymerase ribozyme fitness, log enrichment relative to wild type (log ratio); higher = more active; in vitro selection for triplet polymerase activity
Summary of the method: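 Mutant libraries of both subunits of a heterodimeric triplet polymerase ribozyme were PCR-built, transcribed, and selected once in triplicate, with frozen incubation at −7 °C and capture of gel-excised extended constructs on streptavidin beads before RT-PCR. Illumina sequencing of input and output libraries was filtered to genotypes with ≥10 input reads and ≥1 read per output. Fitness is the logarithm of genotype enrichment over wild-type enrichment, using inverse-variance-weighted replicate averages. The logarithm is base 2.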

In order of rising “polymerase ribozyme fitness (log ratio)” value:
1. C13A C34A G69A U96A C115A  -7.14
2. C13U U33G G69U C104G G120A U125C  -6.78
3. C13A C15U G47C C114A U130C  -6.45
4. C13G G51U C72G A111C  -6.15
5. C13A A27C C70U  -5.92
6. C13U C28G G63U C98U C115U  -5.89
7. C13A G51U  -5.64
8. U14A A29G G113A  -5.5
9. C13A A27C U129A  -5.35
10. C13A A29G C53U U106C  -5.28
11. C13U C98A C115U  -5.17
12. C13U C82G A90U C104A  -5.14
13. U14A A18C G113A C123U  -4.67
14. U14A A43G G58A C86U  -4.43
15. C13U G48A C56A G71A A90G  -4.36
16. C13U C72G A74U G93A C114G  -4.31
17. U14A A41C  -4.27
18. C13G G51C C104U G120C  -4.18
19. C12U G60C U109G  -4
20. C13A C56G C89A A90U  -3.98
21. C13U U55A G61C A84U C85G A95G U125G G128U  -3.92
22. C13G C40U G47C C62U U78A  -3.84
23. C13U G45U C56G U87A  -3.44
24. C13G A83U A95C G110A G120U  -3.42
25. C13A C62U C89A  -3.31
26. C13U A27U C79A  -3.24
27. C13A C70A  -3.18
28. C13G A37G G48C  -3.17
29. C13A C86A  -3.09
30. C13U G44A A50C G63A C85A  -3.07
31. C13U C34A U54A U78C U112A G122C  -3.05
32. C12U U55C G71A A90G G113U  -2.97
33. C13U G39A G58U C79G C97U  -2.64
34. C13G G127A  -2.49
35. C13A G63A  -2.44
36. C13U A18C A37C C49U A121C  -2.39
37. C13U C40A C82A C89A  -2.38
38. C13U C40U A43G G52U G58C A91C  -2.35
39. C13U A29C C56U  -2.25
40. C13A C70G C123A  -2.2
41. C13U A29C G61U  -2.08
42. C13G U81C  -1.96
43. C13G G48A C73A  -1.93
44. C13U C56U U92C C114A  -1.92
45. C13G C72U  -1.8
46. C12U U38G G63U  -1.77
47. C13U A37G G47A G57C G71C  -1.61
48. C13A C124U U132A  -1.61
49. C12U G71C C82G  -1.53
50. C13U C104A  -1.47
51. C13U G117A  -1.27
52. C13U A74U G93C G113A  -1.26
53. C12U G71A C94U  -1.26
54. C13G G52U C70U C123A  -1.13
55. C12U G63U C70A C82A C115A G128A  -1.07
56. C13G C15A U106A C123A  -1.05
57. C13U U59A U81C  -0.938
58. C13U G69U G93A U126C  -0.75
59. C13G A37G A41C A121U  -0.739
60. C13G A37C U112C  -0.647
61. C13U C76A  -0.633
62. C13U A18U G42C U87A  -0.601
63. C13U G36A C88U  -0.556
64. C12U G48U  -0.505
65. C13U G63A U78C  -0.503
66. C13U C40A G61A  -0.491
67. C13U G45U G60C C82U  -0.444
68. C13A U112A  -0.401
69. C13U C40A  -0.359
70. C13U C73U  -0.351
71. C12U G52A G63C U112A G120A  -0.326
72. C13U U55A C88U  -0.31
73. C12U U133G  -0.256
74. C13U C40U  -0.246
75. C13A G36A C72U A121C G127U  -0.199
76. C13A G61A C82U C124U  -0.178
77. C13G C124G U126A U131A  -0.0429
78. C13G A119U  0.114
79. C13U U55G C79U  0.324
80. C12U G57C  0.562
81. C13A G44C C56U C124A  0.969
82. C13U A83C U112C  1.79
83. C12U G63A C124G G127U  1.79
84. C13U C124U  1.96
